These results are taken from paper PMC2847215.

The labels stand for the following.
T1: rMcrA-S (UniProt P24200 1-277)
T1 sequence: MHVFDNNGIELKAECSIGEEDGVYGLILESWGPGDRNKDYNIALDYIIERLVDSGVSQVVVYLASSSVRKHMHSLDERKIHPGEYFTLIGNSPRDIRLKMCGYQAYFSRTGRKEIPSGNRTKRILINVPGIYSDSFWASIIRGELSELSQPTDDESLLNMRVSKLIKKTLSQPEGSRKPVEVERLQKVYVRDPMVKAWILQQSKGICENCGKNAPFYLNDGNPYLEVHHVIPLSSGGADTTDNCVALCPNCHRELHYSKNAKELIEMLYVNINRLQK

B1: cassette CCGG, single symmetric m5C in HpaII site (dsDNA)
DNA 1: GCCTTCAGCGCCGGCGGATCCAGT
DNA 2: ACTGGATCCGCCGGCGCTGAAGGC
modifications: m5C12 in strand 1 and m5C12 in strand 2 (positions from site name)
B2: unmethylated cassette (oligos 7/8) (dsDNA)
DNA 1: GCCTTCAGCGCCGGCGGATCCAGT
DNA 2: ACTGGATCCGCCGGCGCTGAAGGC
B3: C/G hemimethylated HpaII cassette (dsDNA)
DNA 1: GCCTTCAGCGCCGGCGGATCCAGT
DNA 2: ACTGGATCCGCCGGCGCTGAAGGC
modifications: m5C12 in strand 1 only
B4: CGC cassette (dsDNA)
DNA 1: CCCTCTGACGCAGGAGGCTCCTGC
DNA 2: GCAGGAGCCTCCTGCGTCAGAGGG
modifications: m5C9 strand 1, m5C15 strand 2 (M.SssI)
B5: CGT cassette (dsDNA)
DNA 1: CCCTCTGACGTAGGAGGCTCCTGC
DNA 2: GCAGGAGCCTCCTACGTCAGAGGG
modifications: m5C9 strand 1, m5C15 strand 2 (M.SssI)
B6: C/A mismatch cassette (dsDNA)
DNA 1: GCCTTCAGCGCCGGCGGATCCAGT
DNA 2: ACTGGATCCGCCAGCGCTGAAGGC
modifications: m5C12 in strand 1 only
B7: CGG and ACGG cassette (dsDNA)
DNA 1: CCCTCTGACGGAGGAGGCTCCTGC
DNA 2: GCAGGAGCCTCCTCCGTCAGAGGG
modifications: m5C9 strand 1, m5C15 strand 2 (M.SssI)
B8: CGA and ACGA cassette (dsDNA)
DNA 1: CCCTCTGACGAAGGAGGCTCCTGC
DNA 2: GCAGGAGCCTCCTTCGTCAGAGGG
modifications: m5C9 strand 1, m5C15 strand 2 (M.SssI)
B9: GCGA cassette (dsDNA)
DNA 1: CCCTCTGGCGAAGGAGGCTCCTGC
DNA 2: GCAGGAGCCTCCTTCGCCAGAGGG
modifications: m5C9 strand 1, m5C15 strand 2 (M.SssI)
B10: GCGG cassette (dsDNA)
DNA 1: CCCTCTGGCGGAGGAGGCTCCTGC
DNA 2: GCAGGAGCCTCCTCCGCCAGAGGG
modifications: m5C9 strand 1, m5C15 strand 2 (M.SssI)
B11: TCGA cassette (dsDNA)
DNA 1: CCCTCTGTCGAAGGAGGCTCCTGC
DNA 2: GCAGGAGCCTCCTTCGACAGAGGG
modifications: m5C9 strand 1, m5C15 strand 2 (M.SssI)
B12: CCGG cassette (oligos 17/18) (dsDNA)
DNA 1: CCCTCTGCCGGAGGAGGATCCTGC
DNA 2: GCAGGATCCTCCTCCGGCAGAGGG
modifications: m5C9 strand 1, m5C15 strand 2 (M.SssI)
B13: TCGG cassette (dsDNA)
DNA 1: CCCTCTGTCGGAGGAGGCTCCTGC
DNA 2: GCAGGAGCCTCCTCCGACAGAGGG
modifications: m5C9 strand 1, m5C15 strand 2 (M.SssI)
B14: CCGA cassette (dsDNA)
DNA 1: CCCTCTGCCGAAGGAGGCTCCTGC
DNA 2: GCAGGAGCCTCCTTCGGCAGAGGG
modifications: m5C9 strand 1, m5C15 strand 2 (M.SssI)

One data set addresses T1, rMcrA-S. In words: EMSA.
As to B1, the binding result is on record as “binds”.

In a further data set the target is T1, rMcrA-S. In words: EMSA. The source holds these as a separate data set.
For the molecule B2, the binding result was “no binding”.

B3: the binding result was “binds”.

In the case of B4, the binding result is listed as “no binding”.

For the molecule B5, the binding result was “no binding”.

Consider B6, for which the binding result is “no binding”.

For a further data set, the target named is T1, rMcrA-S. Put plainly: EMSA. This is another data set of the same source.
For B7, the binding result is given as “binds”.

Take B8: the binding result is listed as “binds”.

For B9, the binding result is “binds”.

As to B10, the binding result is on record as “binds”.

For another data set, the target named is T1, rMcrA-S. Put plainly: EMSA. This is another data set of the same source.
On to B11, for which the binding result is “binds”.

B12: the binding result was “binds”.

Turning to B13, the binding result is “binds”.

Regarding B14, the binding result is reported as “binds”.
